Laboratory results as given in IntAct's records for PubMed 20111005.

B1: CCAAT/enhancer-binding protein beta (Gallus gallus (Chicken)), Q05826 (parent)
chain: MQRLVAWDAACLPIQPPAFKSMEVANFYYEADCLAALNKLHPRAAGGRSMTELTVGDHERAIDFSPYLDPLAASQQPAQPPPPAAAAGGNFEPACSSGGQDFLSDLFAEDYKGSGGGKKPDYTYISLTRHGHPCGSQSHKPGVLPGCFPPQIVETKVEPVFETLDSCKGPRKEEGGAGPGPGGMSSPYGSTVRSYLGYQSVPSGSSGNLSTSSSSSPPGTPNPSESSKSAAGAGGYSGPPAGKNKPKKCVDKHSDEYKLRRERNNIAVRKSRDKAKMRNLETQHKVLELTAENERLQKKVEQLSRELSTLRNLFKQLPEPLLASSPRC

Variants of: B1
Details: with smca2_human SMARCA2, P51531
Chain of smca2_human SMARCA2, P51531 (P51531 whole entry): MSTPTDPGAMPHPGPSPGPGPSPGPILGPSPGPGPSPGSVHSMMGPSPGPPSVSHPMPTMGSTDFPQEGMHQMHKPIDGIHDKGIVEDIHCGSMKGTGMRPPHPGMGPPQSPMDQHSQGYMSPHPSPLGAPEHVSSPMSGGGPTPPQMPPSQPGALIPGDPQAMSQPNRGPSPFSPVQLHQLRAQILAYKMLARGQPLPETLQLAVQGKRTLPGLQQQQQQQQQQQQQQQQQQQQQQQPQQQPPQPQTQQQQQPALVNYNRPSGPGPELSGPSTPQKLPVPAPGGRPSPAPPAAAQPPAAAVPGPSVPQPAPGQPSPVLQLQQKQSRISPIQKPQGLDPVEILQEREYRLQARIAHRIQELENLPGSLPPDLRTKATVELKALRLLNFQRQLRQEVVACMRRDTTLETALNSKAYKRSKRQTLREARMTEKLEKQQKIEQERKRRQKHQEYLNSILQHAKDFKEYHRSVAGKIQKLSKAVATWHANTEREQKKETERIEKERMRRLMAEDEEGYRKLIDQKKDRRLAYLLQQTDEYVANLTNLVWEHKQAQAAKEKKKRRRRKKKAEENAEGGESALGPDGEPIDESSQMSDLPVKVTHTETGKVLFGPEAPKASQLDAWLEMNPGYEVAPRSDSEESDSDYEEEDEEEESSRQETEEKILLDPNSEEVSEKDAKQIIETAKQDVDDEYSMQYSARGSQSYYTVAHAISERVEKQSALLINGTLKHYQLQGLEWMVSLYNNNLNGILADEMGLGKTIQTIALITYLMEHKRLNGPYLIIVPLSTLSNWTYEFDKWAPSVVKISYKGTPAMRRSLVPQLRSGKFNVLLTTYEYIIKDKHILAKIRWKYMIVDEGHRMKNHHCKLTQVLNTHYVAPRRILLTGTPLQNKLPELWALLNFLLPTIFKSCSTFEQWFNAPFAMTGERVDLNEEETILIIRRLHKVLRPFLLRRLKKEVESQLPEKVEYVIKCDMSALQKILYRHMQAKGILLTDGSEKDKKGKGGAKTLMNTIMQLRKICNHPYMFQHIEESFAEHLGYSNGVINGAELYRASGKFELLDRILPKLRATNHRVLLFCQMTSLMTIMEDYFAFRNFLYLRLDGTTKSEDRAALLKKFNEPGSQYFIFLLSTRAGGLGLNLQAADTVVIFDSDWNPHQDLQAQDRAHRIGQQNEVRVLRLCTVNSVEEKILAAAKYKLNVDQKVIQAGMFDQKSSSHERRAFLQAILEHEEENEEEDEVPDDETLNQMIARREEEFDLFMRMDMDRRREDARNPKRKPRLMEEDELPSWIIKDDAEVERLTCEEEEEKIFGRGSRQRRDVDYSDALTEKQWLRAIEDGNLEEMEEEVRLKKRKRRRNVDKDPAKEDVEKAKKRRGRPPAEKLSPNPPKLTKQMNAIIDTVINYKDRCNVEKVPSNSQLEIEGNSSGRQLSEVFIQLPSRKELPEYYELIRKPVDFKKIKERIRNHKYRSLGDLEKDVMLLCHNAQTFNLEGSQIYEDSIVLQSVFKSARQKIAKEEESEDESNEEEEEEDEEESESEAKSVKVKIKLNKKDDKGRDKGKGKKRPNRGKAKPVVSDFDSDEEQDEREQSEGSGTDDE

Variant	effect of a mutation on the interaction
MQLLVAWDAACLPIQPPAFKSMEVANFYYEADCLAALNKLHPRAAGGRSMTELTVGDHERAIDFSPYLDPLAASQQPAQPPPPAAAAGGNFEPACSSGGQDFLSDLFAEDYKGSGGGKKPDYTYISLTRHGHPCGSQSHKPGVLPGCFPPQIVETKVEPVFETLDSCKGPRKEEGGAGPGPGGMSSPYGSTVRSYLGYQSVPSGSSGNLSTSSSSSPPGTPNPSESSKSAAGAGGYSGPPAGKNKPKKCVDKHSDEYKLRRERNNIAVRKSRDKAKMRNLETQHKVLELTAENERLQKKVEQLSRELSTLRNLFKQLPEPLLASSPRC [R3L]	decreasing interaction
